{
  "source": "patent US20130316374A1",
  "about": "“BREAST CANCER DIAGNOSTICS” (IMBA - INSTITUT FUR MOLEKULARE BIOTECHNOLOGIE GMBH, priority 2010, published 2013)",
  "key": {"Lin-CD24+CD49f^hi cells": {"tested_on": "Lin-CD24+CD49f^hi cells", "assay": "FACS quantification of MaSC-enriched CD24+CD49high population from mammary glands", "format": "in vivo, mouse", "conditions": "MPA for 3 days", "method": "a, Epithelial proliferation in mammary glands of control littermates and RANK^Δmam females 3 days after sham treatment and MPA implantation. Proliferation was determined by in situ Ki67 immunostaining. b,c, Marked increase of the stem cell-enriched CD24^+CD49^high population (MaSC) in MPA-treated mammary glands in control but not in RANK^Δmam mammary glands. b, Representative FACS profiles showing CD24 and CD49 expression of lineage negative (CD31^− (endothelial cells) CD45^− (hematopoietic cells) […] (erythroid cells)) of mammary MaSCs from MPA- or sham-treated 8-week old virgin females. c, Quantification of MaSC-enriched CD24^+CD49^high population from mammary glands of MPA- or sham-treated virgin RANK^Δmam and littermate control females. For all MaSCs experiments mice were treated with MPA for 3 days. n=4 per group+/−sem. *P<0.05; ***P<0.001 (Student's t-test).\nRecently it has been reported that endogenous progesterone affects the numbers of Lin-CD24+CD49f^hi stem cells during pregnancy^15 and the estrous cycle^16. In both studies, the RANKL/RANK system was implicated based on in vivo whole body Ab blocking studies and RT-PCR expression, however, it was not known whether this is a direct effect of RANKL-RANK in mammary epithelial cells rather than a secondary effect. Therefore it was assayed whether progestins such as MPA can also expand Lin-CD24+CD49f^hi cells."}, "[1]": {"tested_on": "SKBR3 human breast cancer cells", "assay": "DNA damage responses (cell cycle arrest, apoptosis) in SKBR3 cells", "format": "cell-based", "conditions": "RANKL 1 μg/ml", "method": "a, Western Blot analysis for γH2AX, phosphorylated (P) Chk1, total Chk1, p53 and β-actin in isolated primary mouse mammary gland epithelial cells in response to γ-irradiation (2 Gray) in the presence (1 μg/ml) or absence of RANKL stimulation. b,c, FACS analysis of propidium iodide (PI) stained b, mammary epithelial cells and c, SKBR3 human breast cancer cells after γ-irradiation (2 Gray) in the absence or presence (1 μg/ml) of RANKL. Data are representative of at least 3 experiments. Apoptotic cells with a DNA content <2n appear in the sub-G1 region. Percent of cells in sub-G1 (M1), G1-phase (M2), S/G2/M-phase (M3) as well as polyploid cells with a DNA content >4n are given for the indicated time points.\na,b, FACS analysis of a, mammary epithelial cells and b, SKBR3 human breast cancer cells incubated with the genotoxic agent doxorubicin (Dox, 1 μM) in the presence (1 μg/ml) or absence of RANKL. Data are representative of at least 3 experiments. Percent of cells in sub-G1 (M1), G1-phase (M2), S/G2/M-phase (M3) as well as polyploid cells with a DNA content >4n are given for 24 and 36 hours after doxorubicin treatment. c, mRNA expression of pro-apoptotic genes Bim, Puma, and Noxa 6 hours after γ-irradiation (2 Gray) in the presence (1 μg/ml) or absence of RANKL stimulation. Data are shown as fold change compared to control (+/−sem). n=3). *P<0.05; **P<0.005 (Student's t-test).\nFor measurement of cell cycle arrest and apoptosis primary mouse mammary epithelial cells and SKBR3 human breast cancer cells were seeded at a cell-density of 100000 cells/well in a 6-well plate and allowed to grow for 24 hours. Cells where then treated with doxorubicin (1 μM) or γ-irradiation (2 Gray) in the absence or presence of recombinant RANKL (1 μg/ml). Cell cycle arrest and numbers of dead cells were determined using propidium iodine staining. To determine in vivo mammary gland epithelial cell death, control and RANK^Δmam littermate females were γ-irradiated with a total dose of 5 Gray (Gy). Six hours later, mammary glands were isolated and immunostained for active Caspase 3 (Cell Signaling) indicative of apoptosis."}, "[2]": {"tested_on": "human SKBR3 breast cancer cells", "assay": "Western blotting of RANKL/RANK downstream signaling in SKBR3 cells", "format": "cell-based", "conditions": "RANKL stimulation (1 μg/ml)", "method": "a, Western blotting for phosphorylated (P) p65 NFκB, total p65 NFκB, phosphorylated (P) IκBα, total IκBα, phosphorylated (P) ERK1/2, total ERK1/2, phosphorylated (P) p38-MAPK, and p38-MAPK in human SKBR3 breast cancer cells in response to RANKL stimulation (1 μg/ml). Data are representative of 3 experiments. b, Growth curve of SKBR3 breast cancer cells cultured in normal growth medium (control, DMEM supplemented with 10% FCS) or in the presence of RANKL (1 μg/ml). Cell numbers were determined by counting live cells (trypan blue-exclusion) over 3 days. c, Onset of palpable mammary tumors in NFATc1^Δmam (n=10) and age matched littermate control (n=16) females treated with MPA pellets and DMBA. Data are shown as percentage of tumor free mice after the last DMBA challenge. No significant difference was found. d, Quantification of NFATc1 mRNA expression in purified mammary epithelial cells (MECs) and MPA-driven mammary tumors from NFATc1^Δmam and littermate control females. mRNA was determined by qRT-PCR. Data are shown as fold change compared to control (+/−sem). n=5 Per group. *P<0.05 (Student's t-test).\nThe human epithelial breast tumor cell line SKBR3 and primary non-transformed mouse mammary epithelial cells were left untreated or stimulated with recombinant murine RANKL^ref. 9. Adenocarcinomas were isolated from control and mutant mice and total protein lysates prepared. […]"}},
  "data": [
    {"molecule": "CC(=O)O[C@]1(C(C)=O)CC[C@H]2[C@@H]3C[C@H](C)C4=CC(=O)CC[C@]4(C)[C@H]3CC[C@@]21C", "note": "[MPA, medroxyprogesterone acetate]", "values": [
      {"measurement": "expansion of Lin-CD24+CD49f^hi cells", "setting": "Lin-CD24+CD49f^hi cells; RANK^Δmam females", "value": "did not occur"},
      {"measurement": "expansion of Lin-CD24+CD49f^hi cells", "setting": "Lin-CD24+CD49f^hi cells; control females", "value": "two-fold expansion"}
    ]},
    {"molecule": "RANKL: Receptor Activator of NF-κB Ligand; recombinant murine RANKL used for stimulation (protein, UniProt O35235 139-316, looked up) Tumor necrosis factor ligand …: FSGAPAMMEGSWLDVAQRGKPEAQPFAHLTINAASIPSGSHKVTLSSWYHDRGWAKISNMTLSNGKLRVNQDGFYYLYANICFRHHETSGSVPTDYLQLMVYVVKTSIKIPSSHNLMKGGSTKNWSGNSEFHFYSINVGGFFKLRAGEEISIQVSNPSLLDPDQDATYFGAFKVQDID", "values": [
      {"measurement": "cell death after DNA damage", "setting": "[1]; doxorubicin (1 μM)", "value": "marked protection from cell death"},
      {"measurement": "early cell cycle arrest after DNA damage", "setting": "[1]; doxorubicin (1 μM)", "value": "did not alter"},
      {"measurement": "cell death after DNA damage", "setting": "[1]; γ-irradiation (2 Gray)", "value": "marked protection from cell death"},
      {"measurement": "early cell cycle arrest after DNA damage", "setting": "[1]; γ-irradiation (2 Gray)", "value": "did not alter"},
      {"measurement": "NFκB, p38-MAPKs and ERK activation", "setting": "[2]", "value": "induced NFκB, p38-MAPKs and ERK activation"}
    ]}
  ]
}
